Measured values reported in article doi:10.1101/2020.01.31.925156.
Several values for one entry are separate records, joined by “and”; a condition that tells them apart may be missing. Equal entries are not always repeated. Where two headings read alike, the source gives them in different places.

Tests used:
Assay in all cases: mass photometry
[1] = biological target: deglycosylated trastuzumab
[2] = biological target: trastuzumab (Herceptin®), immunoglobulin G (IgG) monoclonal antibody
[3] = biological target: deglycosylated trastuzumab; remark: listed apart in the source
[4] = biological target: deglycosylated trastuzumab; remark: listed apart in the source
[5] = biological target: trastuzumab (Herceptin®), immunoglobulin G (IgG) monoclonal antibody; remark: listed apart in the source
[6] = biological target: recombinant human FcRN (His and Avi tagged), neonatal Fc receptor (human) (UniProt P55899)
[7] = biological target: recombinant human FcRN (His and Avi tagged), neonatal Fc receptor (human) (UniProt P55899); remark: listed apart in the source
[8] = biological target: trastuzumab (Herceptin®), immunoglobulin G (IgG) monoclonal antibody; remark: listed apart in the source
[9] = biological target: trastuzumab (Herceptin®), immunoglobulin G (IgG) monoclonal antibody; remark: listed apart in the source
[10] = biological target: recombinant human FcRN (His and Avi tagged), neonatal Fc receptor (human) (UniProt P55899); remark: listed apart in the source
[11] = biological target: recombinant human FcRN (His and Avi tagged), neonatal Fc receptor (human) (UniProt P55899); remark: listed apart in the source

Kd [1] [nM] | percent bound antibody [1] [%] | Kd [2] [nM] | percent complex formation [2] [%] | Kd [3] | Kd [4] [nM] | koff [4] [s⁻¹] | kon [4] [M⁻¹ s⁻¹] | Kd [5] [nM] | koff [5] [s⁻¹] | kon [5] [M⁻¹ s⁻¹] | Kd [6] [nM] | stoichiometry N [6] | Kd [7] | Kd of IgG plus two FcRns (second FcRn) [8] | Kd of IgG-FcRn monomer (first FcRn) [8] | stoichiometry N [8] | Kd [9] [nM] | Kd [10] [nM] | Kd [11] [nM] | Substance
1 | 50 | 0.05 | 90 | 0.6 nM and 0.7 nM | 1.1 | 0.0068 | 6e+06 | 0.026 | 0.00052 | 1.9e+07 | – | – | – | – | – | – | – | – | – | FcγRIa (CD64 human recombinant, His Tag) (from UniProt P12314) (receptor)
– | – | > 200 | – | – | – | – | – | – | – | – | 31 | 2 | 44 nM and 171 nM | 6.6 nM and 3.9 nM | 59 nM and 225 nM | 2 | > 200 | > 200 | > 200 | recombinant human FcRN (His and Avi tagged), neonatal Fc receptor (from UniProt P55899)
